Test results as given in PMC10998907 (2024).

Legend:
Test in all cases: BLI
[1] = molecular target: T1, HeV-RBP global head domain, His-tagged (Hendra virus, UniProt O89343 183-602, biotinylated for BLI only (EZ-link Sulfo-NHS-LC-Biotin))
[2] = molecular target: T2, NiV-RBP global head domain, His-tagged (Nipah virus, UniProt Q9IH62, biotinylated for BLI only (EZ-link Sulfo-NHS-LC-Biotin))
T2 chain: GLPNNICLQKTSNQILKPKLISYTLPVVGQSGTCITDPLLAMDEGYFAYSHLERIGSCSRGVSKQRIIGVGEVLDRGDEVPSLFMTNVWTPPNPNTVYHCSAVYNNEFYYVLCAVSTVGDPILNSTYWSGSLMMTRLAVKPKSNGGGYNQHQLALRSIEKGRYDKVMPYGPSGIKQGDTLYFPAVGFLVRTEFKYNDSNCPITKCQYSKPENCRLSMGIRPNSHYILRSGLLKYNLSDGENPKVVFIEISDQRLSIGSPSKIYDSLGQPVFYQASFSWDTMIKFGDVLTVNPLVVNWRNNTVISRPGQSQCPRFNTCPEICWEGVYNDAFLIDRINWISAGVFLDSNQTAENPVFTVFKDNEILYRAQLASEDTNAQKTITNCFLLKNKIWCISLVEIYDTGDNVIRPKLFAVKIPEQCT

[3] = molecular target: T1, HeV-RBP global head domain, His-tagged; remark: listed apart in the source
[4] = molecular target: T2, NiV-RBP global head domain, His-tagged

T1 sequence (O89343 183-602): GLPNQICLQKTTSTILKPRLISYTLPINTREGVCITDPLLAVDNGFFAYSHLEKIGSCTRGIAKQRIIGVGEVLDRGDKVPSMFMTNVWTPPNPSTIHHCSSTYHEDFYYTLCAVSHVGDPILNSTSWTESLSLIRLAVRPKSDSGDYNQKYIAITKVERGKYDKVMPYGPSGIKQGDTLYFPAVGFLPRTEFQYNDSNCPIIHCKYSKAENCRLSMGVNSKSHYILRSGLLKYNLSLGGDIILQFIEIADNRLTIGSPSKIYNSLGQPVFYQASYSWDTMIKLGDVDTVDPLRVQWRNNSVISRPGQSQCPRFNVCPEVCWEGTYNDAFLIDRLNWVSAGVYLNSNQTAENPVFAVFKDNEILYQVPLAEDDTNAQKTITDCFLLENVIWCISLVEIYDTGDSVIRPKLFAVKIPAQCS

B1: 41-6 Fab fragment (Fab, V domains shown)
VH: EVQLVQSGGGLVQPGGSLRLSCAASGFTVSSNYMSWVRQAPGKGLEWVSAISGSGGSTYYADSVKGRFTISRDNSKNTLYLQMNSLRAEDTAVYYCARDREDIVVVPAPRGYYYYYYMDVWGQGTTVTVSS
VL: QSVVTQPPSVSAAPGQKVTISCSGSSSNIGTNHLSWYQQVPGTAPKLLIYDNNKRPSGIPDRFSGSKSGTSASLAISGLQSEDEADYYCATWDDSLHAWVFGGGTKLTVL
B1 gave a koff [1] of 0.00018 s⁻¹, a koff [2] of 0.0002 s⁻¹ and a Kd [3] of 5.4 nM. It also gave a Kd [4] of 3.6 nM.
